Results taken from the nanobody polyreactivity screen of Harvey et al. (2022).

Test: yeast display, Sf9 membrane polyspecificity reagent, FACS + sequencing; frameworks hold sequencing errors
Outline: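 Nanobodies from a synthetic yeast display library (Saccharomyces cerevisiae BJ5465), induced 36–48 hours with galactose, were stained 1 hour at 4 °C with 10% biotinylated, detergent-solubilized Sf9 membrane reagent, enriched on streptavidin microbeads, then FACS-sorted. Anti-HA (expression) and streptavidin (reagent binding) fluorescence set low and high (top ~1%) gates. Polyreactivity labels come from the gate of origin. Genes were colony-PCR amplified, MiSeq 2 × 250 sequenced and filtered by CDR length.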

Question: Which “polyreactivity (PSR sort gate)” value does the source give for “QVQLVESGGGVVQAGGSLRLSCAASGRTFPYNPMGWYRQAPGKERELVAAISGRGGSTYYADSVKGRFTISRDNAKNTVYLQMNSLKPEVSAVYYCDARLPWSYYRTQGYNYWGQGTQVTVSS” here?
Answer: high polyreactivity

Question: With “QVKLVDTGGGLVKAGGSLLLSCAASGSPFVWYGMGWYRQSHGKEREFDAAISTSGGRTYYADSVKGRFTISRDNAKNTVYLQMNSLKPEDTAVYYCARQPRLYFKGKLYGYWGQGTQVTVSS” as the sequence, how does the “polyreactivity (PSR sort gate)” value read?
Answer: high polyreactivity

Question: Which “polyreactivity (PSR sort gate)” value does the source give for “QVQLVESGGGLVQAGGSLRLSCAASGSTFHWYAMGWYRQAPGKERELVAAITSGGSTYYADSVKGRFTISRDNAKNTVYLQMNSLKPEDTAVYYCNADRVDSFFDGPSRGYDYWGQGTQVTVSS” here?
Answer: low polyreactivity

Question: With “QVQLVESGGGLVQAGGSLRLSCAASGRIFYYYAMGWYRQAPGKERELVATISSSGGSTYYADSVRGRFTISRDNAKNTVYLQMNSLKPEDTAVYYCAARVPLWSRGRTTWPKSQYEYWGQGTQVTVSS” as the sequence, how does the “polyreactivity (PSR sort gate)” value read?
Answer: high polyreactivity

Question: With “QVQLVESGGGLVQAGGSLRLSCAASGNIFWAYAMGWYRQAPGKERELVAAISGRSGSTYYADSVKGRFTISRDNAKNTVYLQMNSLKPEDTAVYYCNARPRYTSGGYDYWGQGTQVTVSS” as the sequence, how does the “polyreactivity (PSR sort gate)” value read?
Answer: low polyreactivity

Question: For “QVQLVESGGGLVQAGGSLRLSCAASGRTFAIYVMGWYRQAPGKEMELVAAISRGGSTYYADSVKGRFTISRDNAKNTVYLQMNSLKPEDTAVYYCAAGTGTTSRYYYWGQGTQVTVSS”, which “polyreactivity (PSR sort gate)” value is on record?
Answer: high polyreactivity

Question: With “QVQLVESGGGLVQAGGSLRLSCAASGRIVTSNAMGWYRQAPGKERELVAVISRRGGSTYYADYVKGRFTITRDNAKNTVYLQMNSVKPEDTAVYYCARRPYSYTRYEYWGQGTQVTVSS” as the sequence, how does the “polyreactivity (PSR sort gate)” value read?
Answer: low polyreactivity

Question: Which “polyreactivity (PSR sort gate)” value does the source give for “QVQLVESGGGLVQAGGSLRLSCAACVFIFSRYAMGWYRQAPGKERELVAAISRGGSTNYADSVKGRFTISRDNAKNTVYLQMNSLKPEDTAVYYCAVRQNVRYYYWGQGTQVTVSS” here?
Answer: high polyreactivity

Question: Which “polyreactivity (PSR sort gate)” value does the source give for “QVQLVESGGGLVQAGGSLRLSCAASGFTFYRYAMGWYRQAPGKEREFVASISWSGGSTYYADSVKGRFTISRDNAKNTVYLQMNSLKPEDTAVYYCAATSQAYWDLWSTYYTYYYWGQGTQVTVSS” here?
Answer: high polyreactivity

Question: For “QVQLVESGGGLVQAGGSLRLSCAASGSTFPGYAMGWYRQAPGKERELVATISSGGSTNYADSVKGRFTISRDNAKNTVYLQMNSLKPEDTAVYYCAKLRSAKFRYGYWGQGTQVTVSS”, which “polyreactivity (PSR sort gate)” value is on record?
Answer: low polyreactivity

Question: With “QVQLVESGGGLVQSGGSLRLSCAASGFIFGGYAMGWYRQAPGTERELVASITWSGGRTFYADSVKGRFTISRDNAKNTVYLQMNSLKPEDTEVYYCAAGIYFTPYYYYPPNPFDYWGQGTQVTVSS” as the sequence, how does the “polyreactivity (PSR sort gate)” value read?
Answer: low polyreactivity

Question: For “QVQHVESGGGLVQEGGSLRLSCAASARTFPFYAMGWYRQATGKERELVAAITRSDDSPYYADSVKGRFTFSRDNAKNTVYVQMHSLKPEDIAVYYCAADVEGLTVESHVYRVGFDYCGQGTQVTVSS”, which “polyreactivity (PSR sort gate)” value is on record?
Answer: low polyreactivity

Question: With “QVQLVESGGGLVQAGGSLRLSCAASGIIFKYNVMGWYRQAPGKERELVAAITDSGTSTFYADSVKGRFTISRDNAKNTVYLQMNSLKPEDTAVYYCAADEFSVFTIETYGYDYWGQGTQVTVSS” as the sequence, how does the “polyreactivity (PSR sort gate)” value read?
Answer: low polyreactivity

Question: With “QVQLVESGGGLVQAGGSLRLSCAASGNTFNSYAMGWYRQAPGKERELVAAISSSTGRTYYADSVKGRFTISRDNAKNTVYLQMNSLKPEDTAVYYCNAYLYLSRNGYWGQGTQVTVSS” as the sequence, how does the “polyreactivity (PSR sort gate)” value read?
Answer: high polyreactivity

Question: Which “polyreactivity (PSR sort gate)” value does the source give for “QVQLVESGGGLVQAGGSLRLTCAASGRTFAWYAMGWYRQAPGKERELVAAISSGGSTYYADSVKGRFTISRDNAKNTVYLQMDSLKPEDTAVYYCAAEWHYIYAYDYWGQGTQVTVSS” here?
Answer: low polyreactivity

Question: Which “polyreactivity (PSR sort gate)” value does the source give for “QVQLVESGGGLVQAGCSLRVSSAASGRIFVYYAMGRYRQAPGKERELVAAIRWTGGSTYYADSVKGRFTISRDNAKNTVYLQMNSVKPEDTAVYYCATVNRYCHFNYWGQGTQVTVSS” here?
Answer: high polyreactivity

Question: With “QVQLVESGGGLVQAGGSLRLRCAASGRTFRYYAMGWYRQAPGKEREVVAAITRSGGSTYYADSVKGRFTISRDNAKNTVYLQMNSLKPEDTAVYYCAASRFTSYGIDYDYCGQGTQVTVSS” as the sequence, how does the “polyreactivity (PSR sort gate)” value read?
Answer: high polyreactivity

Question: For “QVQLVESGGGLVQAGGSLRLSCAASGSTFYDNAKGWYRPAPGKERELVAAISYSGASTYYADSVKGRFTISRDNAQNTVYLQMNSLKPEDTAVYYCSKTFYSLYWGQGTQVTVSS”, which “polyreactivity (PSR sort gate)” value is on record?
Answer: low polyreactivity

Question: For “QVQLVESGGGLVQAGGSLRLSCAASGSIFDWYVMGWYRQAPGKERELVAAITSGGSTNYADSVKGRFTISRDNAKNTVYLQMNSLKPEDTAVYFCAADTVSFSILYDYWGQGTQVTVSS”, which “polyreactivity (PSR sort gate)” value is on record?
Answer: low polyreactivity

Question: Which “polyreactivity (PSR sort gate)” value does the source give for “QVQLVESGGGLVQAGGSLRLSCAASGRIFFDYDMGWYRPAPGKERELVAAISSSGDSTYYADSVKGRFTISRDNAKNTVYLQMNSLKPEDTAVYYCNAKSVPVNYVAIKYDYWGQGTQVTVSS” here?
Answer: high polyreactivity

Question: With “QVQLVESGGGLVQAGGSLRLSCAASGGTFIRYAMGWYRQAPGKERELVAAISSSGGSTYYADSVKGRFTISRDNAKNTVYLQMNSLKPEDTAVYYCNGRQSRFKYDYWGQGTQVTVSS” as the sequence, how does the “polyreactivity (PSR sort gate)” value read?
Answer: high polyreactivity

Question: Which “polyreactivity (PSR sort gate)” value does the source give for “QVQLEESGGGLVQAGGSLRLSCAASGSTFDNNGMGWYRQATGKERELVASITFNVGSTYYADSVKGRFTMSRDNAKNTVYLQMNSLKPEDTAVYYCGADDLNLSQALGYDFWGQGTQVTVSS” here?
Answer: low polyreactivity
